US20030148445A1 (NATIONAL JEWISH MEDICAL AND RESEARCH CENTER, published 2003)

Experiments:
[1] = target: T1, Flag-tagged sTALL-1 (Flag-sTALL-1) (human, UniProt Q9Y275 134-285); assay: competition in flow cytometry on Bjab cells
T1 construct: Secreted from 293 cells transfected with pSec-Flag-sTALL-1; used as conditioned medium or purified on an anti-Flag column; also called soluble TALL-1
Experimental: As described in Examples 2 and 3, cell staining was performed by sequential incubation (each 40 minutes) with anti-Flag monoclonal antibody (1 μg/ml) and RPE-conjugated goat anti-mouse IgG (1:200 dilution) in staining buffer (D-PBS containing 2% fetal bovine serum). Cells were washed two times with staining buffer following each incubation.

[2] = target: T2, Flag-tagged soluble TRAIL (Flag-sTRAIL) (UniProt P50591 95-281, limits assumed); assay: co-immunoprecipitation with anti-HA antibody, Western blot with anti-Flag antibody
T2 construct: not shown: Flag tag
Experimental: (§1) 24 hours after transfection, cells were lysed in 1.0 ml lysis buffer (20 mM Tris [pH 7.5], 150 mM NaCl, 1% Triton, 1 mM EDTA, 10 μg/ml aprotinin, 10 μg/ml leupeptin, 1 mM PMSF). […] The mixtures were split into 2 aliquots and each aliquot was incubated with 0.5 μg anti-HA monoclonal antibody (BABCO, Berkeley, Calif.) (FIG. 6A; lanes 2,4,6,8) or control mouse IgG (FIG. 6A; lanes 1, 3, 5, 7), and 25 μl of a 1:1 slurry of GammaBind G Plus Sepharose at 4° C. for 3 hours. The sepharose beads were washed three times with 1 ml lysis buffer containing 500 mM NaCl. The precipitates were analyzed by Western blot with anti-Flag antibody (FIG. 6A; upper panel). […] All conditioned medium was supplemented with 10 mM Tris (pH 7.5), 100 mM NaCl, 1 mM EDTA, 10 μg/ml aprotinin, 10 μg/ml leupeptin, and 1 mM PMSF before TH immunoprecipitation experiments. Western blots were performed as described above.

[3] = target: T1, Flag-tagged sTALL-1 (Flag-sTALL-1); assay: as above
Experimental: as §1

RIP = target: T3, RIP (UniProt Q13546 1-671, limits assumed); assay: co-immunoprecipitation from transfected 293 cell lysates with anti-Flag antibody, Western blot with anti-HA antibody
T3 sequence (looked up): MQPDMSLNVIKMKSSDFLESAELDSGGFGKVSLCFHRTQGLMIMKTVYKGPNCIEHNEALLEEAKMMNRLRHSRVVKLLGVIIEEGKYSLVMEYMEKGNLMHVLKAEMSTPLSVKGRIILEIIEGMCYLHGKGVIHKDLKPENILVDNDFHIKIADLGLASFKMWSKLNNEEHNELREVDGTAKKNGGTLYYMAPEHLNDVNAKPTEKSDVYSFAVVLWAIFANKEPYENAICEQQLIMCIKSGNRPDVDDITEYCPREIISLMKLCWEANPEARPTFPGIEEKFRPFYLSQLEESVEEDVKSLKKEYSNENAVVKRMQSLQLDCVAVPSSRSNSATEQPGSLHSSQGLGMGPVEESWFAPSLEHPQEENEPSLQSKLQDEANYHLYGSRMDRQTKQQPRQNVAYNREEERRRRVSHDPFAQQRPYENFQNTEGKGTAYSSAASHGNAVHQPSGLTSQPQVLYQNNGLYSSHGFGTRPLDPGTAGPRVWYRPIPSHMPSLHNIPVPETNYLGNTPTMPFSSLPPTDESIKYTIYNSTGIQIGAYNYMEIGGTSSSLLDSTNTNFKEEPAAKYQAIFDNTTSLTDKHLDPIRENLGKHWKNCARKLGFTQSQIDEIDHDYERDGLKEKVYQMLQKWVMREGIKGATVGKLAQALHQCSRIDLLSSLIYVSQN
Experimental: (§2) In the second portion of the experiment (See FIG. 10B), 293 cells were transfected with expression plasmids for HA-BCMA and the plasmids indicated in FIG. 10B. Transfected cell lysates were immunoprecipitated with anti-Flag antibody or control IgG. The immunoprecipitates were analyzed by Western blot with anti-HA antibody (FIG. 10B; upper panel).

TRAF2 = target: T4, TRAF2 (UniProt Q12933 1-501, limits assumed); assay: as above
T4 sequence (looked up): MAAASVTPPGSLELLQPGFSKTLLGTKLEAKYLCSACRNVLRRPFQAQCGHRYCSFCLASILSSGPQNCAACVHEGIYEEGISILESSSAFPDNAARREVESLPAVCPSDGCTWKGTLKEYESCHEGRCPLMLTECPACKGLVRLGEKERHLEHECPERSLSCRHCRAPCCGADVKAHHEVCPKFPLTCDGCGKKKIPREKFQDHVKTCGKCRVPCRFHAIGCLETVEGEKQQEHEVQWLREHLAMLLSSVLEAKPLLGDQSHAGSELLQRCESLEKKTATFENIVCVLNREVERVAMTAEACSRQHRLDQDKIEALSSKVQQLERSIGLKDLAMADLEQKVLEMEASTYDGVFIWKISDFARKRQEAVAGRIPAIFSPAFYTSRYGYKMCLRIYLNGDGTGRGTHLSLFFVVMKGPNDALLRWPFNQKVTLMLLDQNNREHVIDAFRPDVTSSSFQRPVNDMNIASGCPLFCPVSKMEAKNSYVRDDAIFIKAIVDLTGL
Experimental: as §2

TRADD = target: T5, TRADD (UniProt Q15628 1-312, limits assumed); assay: as above
T5 sequence (looked up): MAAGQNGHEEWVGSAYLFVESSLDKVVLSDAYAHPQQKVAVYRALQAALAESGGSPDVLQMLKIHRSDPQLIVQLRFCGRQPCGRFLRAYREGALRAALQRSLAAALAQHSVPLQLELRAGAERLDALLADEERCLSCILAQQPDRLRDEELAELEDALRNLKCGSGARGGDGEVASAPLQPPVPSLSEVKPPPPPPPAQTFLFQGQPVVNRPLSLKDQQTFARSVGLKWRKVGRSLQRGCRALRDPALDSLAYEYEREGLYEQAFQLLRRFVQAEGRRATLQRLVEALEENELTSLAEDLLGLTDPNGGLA
Experimental: as §2

T1 sequence (Q9Y275 134-285): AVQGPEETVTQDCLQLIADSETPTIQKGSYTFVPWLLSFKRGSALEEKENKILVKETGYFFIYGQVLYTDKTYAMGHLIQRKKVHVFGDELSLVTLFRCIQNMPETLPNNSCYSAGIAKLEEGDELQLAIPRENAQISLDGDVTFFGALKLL
T2 sequence (P50591 95-281 limits assumed): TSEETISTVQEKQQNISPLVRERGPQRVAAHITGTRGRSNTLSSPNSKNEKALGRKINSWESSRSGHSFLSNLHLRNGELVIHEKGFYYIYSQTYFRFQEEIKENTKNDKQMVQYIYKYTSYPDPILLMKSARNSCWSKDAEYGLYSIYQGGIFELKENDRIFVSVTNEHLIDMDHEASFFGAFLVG

B1: Flag-sBCMA-Fc secreted fusion protein (Fc fusion)
chain: MLQMAGQCSQNEYFDSLLHACIPCQLRCSSNTPPLTCQRYCNASVTNSVKGTNAILWTCLGL
notes: Used as 50-fold concentrated conditioned medium of transfected 293 cells; also called soluble BCMA; not shown: N-terminal Flag tag; Fc fragment of immunoglobulin G1 (IgG1), from the pCMV1-Flag-Fc plasmid
binding result [1]: binds

B2: C-terminal HA epitope-tagged BCMA (BCMA-HA) (receptor, not shown: small tags and cut ends)
chain: MLQMAGQCSQNEYFDSLLHACIPCQLRCSSNTPPLTCQRYCNASVTNSVKGTNAILWTCLGLSLIISLAVFVLMFLLRKISSEPLKDEFKNTGSGLLGMANIDLEKSRTGDEIILPRGLEYTVEECTCEDCIKSKPKVDSDHCFPLPAMEEGATILVTTKTNDYCKSLPAALSATEIEKSISAR
notes: also called HA-BCMA; B Cell Maturation Protein
binding result [2]: no binding (tested: 0.1 µg recombinant Flag-sTRAIL)
binding result [3]: binds
binding result (RIP): no binding
binding result (TRAF2): no binding
binding result (TRADD): no binding
